The supplement of paper PMC10567573

B1: KLHL14 (parent)
chain: WLYCYDPVMDVWARKQDMNTKRAI

Variants of: B1
Experiment: protein stability index of a GFP-peptide fusion (GPS, HEK-293T) (PSI 1-6); higher = more stable
Settings: c terminus: a fixed tail appended
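Further: lentivirally expressed fusions sorted by FACS into six bins by GFP to DsRed ratio, PSI derived from sequencing read proportions per bin multiplied by bin number.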

Protein stability index: each site, then its substitutions
Q16: L 1.72, H 2.27, F 1.85, G 2.25, E 2.4, D 2.15, Y 1.69, I 1.81, S 1.94, A 2.42, C 1.81, W 2.7, P 1.85, M 2.5, T 1.83, N 2.16, V 2.29, R 1.95, K 1.7
M18: N 2.77, L 1.82, G 3.03, S 2.39, Y 2.17, F 2.56, P 1.98, H 2.55, I 2.28, W 2.86, C 1.86, R 2.48, E 2.4, D 3.05, Q 2.08, T 2.13, K 2.1, V 2.19, A 2.15
K15: L 2.21, H 1.94, G 1.56, I 2.11, E 2.21, Y 2.08, D 1.97, T 1.71, F 1.76, M 1.54, R 2.14, S 1.79, A 1.68, N 2.03, V 1.89, P 1.64, C 2.29, W 1.48, Q 1.95
A13: L 1.97, P 1.82, R 1.8, G 1.97, Q 2.46, F 1.57, K 2.52, E 2.36, T 2.1, I 2.18, S 2, N 2.46, Y 1.87, D 2.84, C 1.81, W 2.44, M 1.96, H 2.67, V 2.13
T20: M 1.7, D 2.15, H 1.88, F 1.44, P 2, N 1.85, K 2.15, C 1.62, I 1.91, S 1.99, E 1.95, Q 1.99, R 1.77, G 2.57, A 2.07, V 2.11, L 2.28
D17: N 1.91, I 1.94, F 2.24, R 2.34, W 2.58, M 2.2, Q 2.06, A 2.33, V 2.06, L 2.48, G 1.97, K 1.65, H 2.21, C 1.74, Y 1.67, E 1.8, T 1.78, P 2.16, S 2.38
N19: R 1.83, D 2.27, P 1.93, A 1.59, E 1.81, W 2.53, F 1.52, C 1.76, H 1.57, Y 1.72, S 1.83, L 2.05, K 2.02, T 1.88, M 2.13, G 2, Q 2.2, I 1.57, V 2.55
R14: Y 1.81, F 1.57, L 2.36, M 1.93, N 1.77, A 1.85, T 1.54, E 2.13, I 1.84, C 1.75, G 1.81, S 1.88, K 1.9, P 2.23, H 1.97, D 2.11, V 2.62, Q 2.45, W 1.85
W12: G 2.1, Y 2.09, M 1.77, H 2.04, R 1.78, T 2.11, E 2.06, I 1.47, Q 1.92, N 2.2, L 2.07, F 1.86, S 1.5, P 1.76, D 2.23, V 1.95, K 2.03
